The source of these data is article PMC4570671, “A Novel Aldo-Keto Reductase (AKR17A1) of Anabaena sp. PCC 7120 Degrades the Rice Field Herbicide Butachlor and Confers Tolerance to Abiotic Stresses in E. coli” (PLoS ONE, 2015).

The kcat is the maximal rate divided by the concentration of active sites. Broadly, the kcat/Km is the second-order rate constant that governs catalysis at low substrate concentration.

Test systems include O=Cc1ccccc1[N+](=O)[O-]; O=Cc1ccccc1; CCOC(=O)C(C)=O; O=C1Nc2ccccc2C1=O; CC(=O)C=O.
What all share (assay): purified protein
Holding throughout (settings): 0.12 mM NADPH, 50 mM potassium phosphate pH 7.4, 10 mM 2-mercaptoethanol, 37°C

For series [1], the system named is CCCCOCN(C(=O)CCl)c1c(CC)cccc1CC.

As to “AKR17A1 (All2316) (Nostoc sp. PCC 7120 = FACHB-418)”, the Km with O=Cc1ccccc1[N+](=O)[O-] is 0.014 (0.002) mM; with O=Cc1ccccc1, 3.740 (1.098) mM; in series [1], 0.548 (0.190) mM; in the series with CCOC(=O)C(C)=O, 6.213 (2.214) mM; in the series with O=C1Nc2ccccc2C1=O, 0.011 (0.005) mM; in the series with CC(=O)C=O, 4.164 (0.973) mM. Further, the kcat was determined as 1.59 s⁻¹ in the series with O=Cc1ccccc1[N+](=O)[O-]; 1.51 s⁻¹ with O=Cc1ccccc1; 2.11 s⁻¹ in series [1]; 1.43 s⁻¹ in the series with CCOC(=O)C(C)=O; 1.58 s⁻¹ in the series on O=C1Nc2ccccc2C1=O; 1.6 s⁻¹ in the series with CC(=O)C=O. Also, the kcat/Km with O=Cc1ccccc1[N+](=O)[O-] amounted to 114000 M⁻¹ s⁻¹; in the series on O=Cc1ccccc1, 404 M⁻¹ s⁻¹; in series [1], 3840 M⁻¹ s⁻¹; in the series with CCOC(=O)C(C)=O it was 228 M⁻¹ s⁻¹; with O=C1Nc2ccccc2C1=O it was 136000 M⁻¹ s⁻¹; with CC(=O)C=O, 383 M⁻¹ s⁻¹.
